Laboratory results from the DeepSol protein solubility set.

Assay: soluble on expression in E. coli; label from the status in PepcDB or PDB records

Sequence | soluble on expression in E. coli
MMDESLCGGLPPEICEQLSVEEQIIKIRLEKRRFGREVTIIEGINEKEFNLKKLASTLKSRLATGGTAKNGRIELQGDHRHRVKKILVELGFPEENITIID | soluble
MMEKPEGLKLIDENGRRIDGRKKYELRPIKMKVGVLKNANGSAYIEWGRNKIIAAVYGPRELHSKHLQRPDRAILRVRYNMAPFSVEERKKPGPDRRSIEISKVIKGALEPALILEMFPRTSIDVFIEVLQADAGTRVAGITAASLALADAGIPMRDLVAACAAGKIEGEIVLDLNKEEDNYGEADVPVAIMPLKNDITLLQMDGYLTKEEFIEAVRLAIKGAKAVYQKQREALKEKYLKIAQEVEESE | soluble
MMGVKAEALTGGFSSAVFDSQRIFKKLMDGMARPGTPQTIETAVAPPLPLAAATGAVLLALCDHDTPVWLNGALRKTAVPGWIGFHTGAPATEEKGAAHFAVIEAGSAIASFGLFAQGSQEYPDRSTTLIIELSDLDGGRELLLSGPGIRHVNIISPSGLPDIFPMLWAENNAIFPRGVDVILTAGDKFVCLPRTTRIKPVEA | not soluble
MMIENLLIELLTEELPPKSLDKLGNAFAAVIADSLKSQNLTTPDTILTAFASPRRLAVHLTAIPAQAPDQVVALKLMPITVGLDAQGQPTPALHKKLAALGMENVDASALKRVQESKAEMLFLEQNVTGILLAAGLQKAMEDAIRQLPVSKVMTYQLDDGWENVHFVRPVHGLIALHGQKIIPVSAFGLTAGNTTRGHRFEVKQTELIIDHADRYASLLETEGAVIPGFDRRRSWIREGLEAAASAVQLRCISDEVLLDEVTALVEYPNILMGAFPTDFLEVPQECLISTMKINQKYFPLLDTDGKLTNQFLIVANITPADPGQIISGNERVIRSRLADAKFFFDHDRKRTLASRLPDLDKVIYHHQLGSQGERTRYVQTLARIIGRLLGDDNLAGQADQAAMLAKADLLTDMVGEFPELQGIMGRYYARFEGMDETIAFAIEDHYKPRFAGDVLPRSMAGICVALADKLETLISLFSIGQLPTGDKDPYALRRHALGVIRILIEKNLPIGLDVLISRAADVLQDEMIGKQDSGPGHARPVTPQLVGQLQDFFYDRLAASLRDQGYTAQEVEAVLNLRPSL | not soluble
MMKEMTVQQMTEKVLNKESLFILDVRNESDFRDWKIEGENFAYLNVPYFELVHGVDSIVDRLPKDQDIVVVCAKGGSAAFVAEQLAEAGFDNVYTLAGGMQAWSEHLHQAKVYEDDQLKIYQFIRVGKGCLSYMVLSGDEALVVDPLRFIDVYEQVAQQEGVTITHIVDSHLHADHLSGGKALAERTGAAYYLMKSEGAVFDFEPLEQHETIDFENVHLEVLAVKTPGHTPGSVSFFVNGKWLFSGDTIFVGGLGRPDLGGKVAEWAEDLYHTVYEKVAAMADDVIVLPAHYANLDEEINAEGYVGDTLGRIRARNEMMQNKAKDEFIDLVIQGAKTETPPNFEDIVAINRGLKTVDIETQRELEIGPLEHHHHHH | soluble
MMKKTPTSTKDSLPNKEMNDLPRLASAVLPLCSQHPGQCGLFPLEKSLDAFAARYRLAEMAEHTLDVQYYIWQDDMSGRLLFSALLAAAKRGVRVRLLLDDNNTPGLDDILRLLDSHPRIEVRLFNPFSFRLLRPLGYITDFSRLNRRMHNKSFTVDGVVTLVGGRNIGDAYFGAGEEPLFSDLDVMAIGPVVEDVADDFARYWYCKSVSPLQQVLDVPEGEMADRIELPASWHNDAMTHRYLRKMESSPFINHLVDGTLPLIWAKTRLLSDDPAKGEGKAKRHSLLPQRLFDIMGSPSERIDIISSYFVPTRAGVAQLLRMVRKGVKIAILTNSLAANDVAVVHAGYARWRKKLLRYGVELYELKPTREQSSTLHDRGITGNSGASLHAKTFSIDGKTVFIGSFNFDPRSTLLNTEMGFVIESETLAQLIDKRFIQSQYDAAWQLRLDRWGRINWVDRHAKKEVILKKEPATSFWKRVMVRLASILPVEWLL | not soluble
MMKPSVSAAILAAGTSTRMNEMKQLAKIQGTYMLKYVIDQVSNHPFQHIFVIVGHQADIVMKMIQVEDKRVQWLVNDQYKQGQSTSFKLAMEQARQYGDAVMMFLADQPLIEKETVNIVLNEGITRVQEEPFIVRPMYEKKEGHPVYWGNIHALDCSAVNGDKGGKTLMEELERMLIPVHDQGVLVDVDTCEDYKKVNDLMKRKSPSTHLEHHHHHH | not soluble
MMKTLLPFFGVVRVSGEDRQTFLHGQLSNDINNLQTGQACYATYNTPKGRVIANMIVVNRGGDLLLIMAQDLLEATVKRLRMFVLRAKAVFEILEDYAVGAELEASAEPLAAQEPNLAFAAQQDSDGICSIALPHGGILRIAPKNTLPPYDAAAENAWRLHEIRSGYPWICAATKETAVAQMLNQHIIGGVHFKKGCYPGQEIIARAQYRGQVKRGLAVLSGNSAAEAGSVLAADGEEAGIVLDSVQDSENFTALAVIKFSAAQKELTVPNGGIFKAVHLFFKTENAELEHHHHHH | soluble
MMLSRAKPAVGGESPHTDKRKKKGRKIPKLEDLLSQRDFTGAITLLEFKRHVGEQEDDTNLWIGYCAFHLGDYKRALEEYENATKEENCNPEVWVNLACTYFFLGMYKQAEAAGFKAPKSRLQNRLLFHLAHKFNDEKKLMNFHQNLQDIKEDQLSLASNSEIHLPLPPECWD | not soluble
MMNYRKADMKDISLLVSIRKRQLIDEGIEPNIDIDKELTRYFNNKLANNLLVEWIAEENNQIIATAAIAFIDFPPTYTNKTGRKGYITNMYTEPTSRGNGIATGMLDRLVNEAKERNIHKICLVASKLGRPVYKKYGFQDTDEWLELNLLEHHHHHH | soluble
MMRIAVKEFLKIRRELKTLSDIRKLPYPRGTLHCILQQKKVDSVKRKYHTFAERIPEIISYWEREKKFPKWLTLPPVMKIRLLMKGMGFSAKSINKALRNPEDVVEDEKLAEQIRKAVLSDYVYSPIAARLQRARGKLGERGLAYELEKAGIEFLTEKDLKGRFSKTPDFYFEEPVEFMGEELKWIESKALFGDPRSHDLYWKKQYSKYYEMFGNGLIVYWLGCVESIEASDGSEFKNGYRTSLLDMLLYLTDSKDESYAERLNARFIEVNEQNDVLAAEKVVDAYAEGRVLAFTDRKREVARILKNMGFDVTLGQNYLTTLTANTLCHSPTANKAISLLSSLLCLINHPNLLLSAENPASLKFLLKYLFRNLLEHHHHHH | not soluble
MMRIGIIARFDVAEAVEIAERVASFLLNRGVEITVDLKLTEELPQLREYGEDIRNMDADMILTIGGDGTILRTRSLIEDKEIPILGINMGTVGFLTEVDPENVFSALEAVLRGEYAVEKRTLLSVYHNDELPSALNEVVLMTRRPAKMLHIEISVDDEVVEELRADGIIIATPSGSTAYSMSAGGPIVDPRVEAFLIVPICPFKLSARPLVVSNKSVIRVKLLRKGKKAIAVIDGQYEEEINHMDEVIFRKSERKAHFVRLSKDFYRKVREKLIEGGIDSIKG | soluble
MMSMKIFETTAPHPEASLLTAFSKNALDRFAEKRTEECVAEALKVDGTHIFAFSGNRLVLKHDEQVIDPLFSAYELAELQPDFDNAVLLGYRETGEPRIAVPVAVAEDQLASHYKLADARTLYRDHLLDEELLSEVAQAVSLTHWNADNRFCGRCGGTMEQRIGGYKRICASCSHTIFPRTDPVVIMMTIDIERDLCLLGRGAHFASGMYSCLAGFVEPGETIEQAVRRETHEESGVEIGRVRYHASQPWPMPHTLMIGCYAEALSSDIARDEIELEDCRWFTREEVAKMLEAPAGEGFSAPPIGAIAHRLMRDWVEWPE | soluble
MMVIGRLGAGKSFATKLRLVRRAMFDEDTVVIMLDPMRGFAGVNEALDGERITVGGRRGLNPLEIKPTPDHVLQEVDDIDPWGEQINWVMTFFATFFEHVADHPLGERNQTLRRAVQEAYEKRGITRDPETHTRDSPTIHDVITVLEEMVEDPEEYGYVTDGEQEAVQSDAQSLLKDLRPSFREGGELENLARPSEFDLDSKVIYLDLHQEEGTRGRAETSLMMQVLFNSVYERVKQTDKRVVFCIDEAHYLMNDAVSLDFLETAVRHSRHFDLSLEFITQTGGEFALTPEARTIANLCSLTVLHRVNEEKEKIAKWF | not soluble
MNAADDKTIVREYFNSTGFDRWKRIYGDGEVNKVQLDIRNGHQQTVDSVIGWLKNDGNLAELSICDAGCGVGSLSIPLATEGAKVYASDISEKMVEEGKQRALETLGNAENPTFAVQDLESLSGSYHTVICLDVLIHYPQEKADEMISHLCSLAQSRIILSFAPKTCALTLLKKIGSFFPGPSKTTRAYLHREADVIKILESNGFAIQRKEFTKTRFYFSRILEATRSLEHHHHHH | soluble
